Test results from patent publication US9750803B2, “Lipid vesicle compositions and methods of use” (priority 2010, dated 2017).

Key:
CD45.1+ recipient mice = test: Expansion of adoptively transferred OT-II CD4+ T-cells after immunization; assay type: in vivo, mouse; conditions: eight days post priming
Description: (§1) Germinal center and follicular helper T cell analysis. Mice were immunized s.c. with 5 μg of MPLA and 100 μg of OVA-alexa fluor 555 in either soluble or ICMV formulations (lipids labeled with DiD). At serial time-points, dLNs were isolated, flash-frozen, cryo-sectioned, and examined by confocal microscopy. To identify cell types associated with particles, dLNs were isolated on d 1 or 4, stained with anti-CD11b, anti-CD11c, anti-CD169, anti-CD205, and F4/80, and analyzed by flow cytometry. To assess GC formation, dLNs were isolated on d14 from mice immunized with 1 μg of unlabeled soluble VMP or VMP-ICMVs (both with 0.1 μg MPLA), stained with anti-B220, anti-IgD, anti-GL-7 (BD), peanut agglutinin (Vectorlabs, Burlingame, Calif.), and analyzed by flow cytometry or confocal microscopy. To monitor antigen-specific CD4+ T-cells, […] OVA-specific CD4+ T cells from OT-II (CD45.2+) mice were adoptively transferred i.v. into recipient congenic CD45.1+ mice. After 1 d, recipient mice were immunized s.c. with 10 μg of OVA in either soluble or ICMV formulations, both with 1 μg MPLA. A second comparison group of mice were immunized s.c. with 100 μg OVA in alum. The frequencies of OVA-specific CD4+ T cells and their phenotypes in spleens and dLNs were determined by flow cytometry analysis, following staining with DAPI, anti-CD4, anti-CD45.2, anti-PD-1, and anti-CXCR5 (BD).

C57Bl/6 mice [1] = test: Example 2 vaccination: tetramer+ OVA-specific CD8+ T-cells in PBMCs; assay type: in vivo, mouse; conditions: mixed with 0.1 μg MPLA
Description: (§2) Vaccination study with ICMVs. Groups of C57Bl/6 mice (Jackson Laboratories) were immunized s.c. in the tail base with indicated doses of OVA (with or without TLR agonist MPLA). Frequencies of OVA-specific CD8^+ T-cells and their phenotypes elicited by immunization were determined by flow cytometry analysis of PBMCs at selected time points following staining with DAPI (to discriminate live/dead cells), anti-CD8 alpha, anti-CD44, anti-CD62L, and […]/H-2K^b peptide-MHC tetramers (Becton Dickinson). To assess functionality of primed CD8^+ T-cells, PBMCs were stimulated ex vivo with 1 μM OVA-peptide […] for 6 hrs with GolgiPlug (Becton Dickinson), fixed, permeabilized, stained with anti-IFN-gamma and CD8 alpha, and analyzed by flow cytometry. Anti-OVA IgG titers, defined as the dilution of sera at which 450 nm OD reading is 0.5, were determined by ELISA analysis of sera from immunized mice. Animals were cared for following NIH, state, and local guidelines.

[2] = test system: OVA-specific naïve OT-I CD8+ T-cells; test: CFSE dilution proliferation assay of OT-I CD8+ T-cells co-cultured with pulsed splenic DCs; assay type: cell-based; conditions: DCs pulsed with 0.7 μg/mL OVA equivalent, 0.1 μg/mL MPLA, day 3
Description: FIGS. 7A-7C. In vitro stimulation of immune responses by ICMVs supplemented with the TLR agonist MPLA. (A) Flow cytometry analysis of expression of the cell surface costimulatory markers CD40, CD80, and CD86 on splenic dendritic cells (DCs) after 18 hr incubation with 0.7 μg/mL soluble OVA, equivalent doses of OVA loaded in ICMVs, or ICMVs loaded with an irrelevant protein (vivax malaria protein, VMP), in the presence or absence of 0.1 μg/mL MPLA. (B) Splenic DCs were incubated for 18 hr with 10 μg/mL […] peptide (OVA257-264), 5.0 μg/mL soluble OVA, equivalent doses of OVA loaded in ICMVs, or VMP-loaded ICMVs in the presence or absence of 0.05 μg/mL MPLA, and the extent of cross-presentation of OVA was assessed by flow cytometry analysis of cells stained with the 25-D1.16 mAb that recognizes […] complexed with H-2K^b. (C) 5-(6)-carboxyfluorescein diacetate succinimidyl diester (CFSE)-labeled OVA-specific naïve OT-I CD8^+ T-cells were co-cultured with syngeneic splenic DCs pulsed with soluble 0.7 μg/mL OVA mixed with 0.1 μg/mL MPLA, or equivalent doses of OVA-loaded ICMVs mixed with MPLA. Empty ICMVs without antigen or ICMVs loaded with the irrelevant antigen VMP were included as negative controls. Proliferation of CD8^+ T-cells was assessed on day 3 by flow cytometry analysis of the dilution of CFSE in the OT-I CD8^+ T-cells; shown are histograms of CFSE fluorescence. […]

C57Bl/6 mice [3] = test: Example 2 vaccination: anti-OVA IgG serum titers by ELISA; assay type: in vivo, mouse; conditions: low dose of MPLA (0.1 μg), two boosts, day 56
Description: as §2

mice [4] = test: Germinal center analysis in draining lymph nodes; assay type: in vivo, mouse; conditions: 100 ng VMP, with MPLA, histological analysis
Description: as §1, with “To assess GC formation, dLNs were isolated on d14 from mice immunized with 1 μg of unlabeled soluble VMP or VMP-ICMVs (both with 0.1 μg MPLA), stained with anti-B220, anti-IgD, anti-GL-7 (BD), peanut agglutinin (Vectorlabs, Burlingame, Calif.), and analyzed by flow cytometry or confocal microscopy.” left out

C57Bl/6 mice [5] = test: Example 3 immunization: anti-VMP IgG serum titers and isotypes by ELISA; assay type: in vivo, mouse
Description: (§3) Immunizations. Animals were cared for following NIH, state, and local guidelines. Groups of 6-10-wk old female C57Bl/6 mice (Jackson Laboratories, Bar Harbor, Me.) were immunized s.c. at the tail base with VMP-ICMVs and indicated doses of MPLA (Sigma-Aldrich, St. Louis, Mo.) in 100 μL PBS on day 0 and 21. Control immunizations with soluble VMP were performed using MPLA, Montanide ISA-50 V2 (Seppic, N.J.), or alum (Imject alum, Pierce, Rockford, Ill.) at an adjuvant:protein solution vol. ratio of 1:1 following the manufacturer's instructions.
(§4) Characterization of anti-VMP humoral responses. Sera were analyzed for IgG, IgG1, and IgG2c antibodies by ELISA using VMP-coated plates (Bell et al. 2009 Vaccine 27:1448-1453). Anti-VMP IgG titers were defined as the lowest serum dilution at which the ELISA OD reading was ≧0.5. Avidity measurements were performed by incubating plates with 6 M urea for 10 min at 20° C. to remove weakly bound IgG prior to addition of detection Ab. The avidity index was defined as (IgG titer with 6 M urea/IgG titer without urea)×100. […] Splenocytes isolated 7 d after boost vaccinations were restimulated ex vivo with either PBS or VMP-ICMV at 2 μg/ml, and on d2, cytokine levels in the culture supernatants were measured by flow cytometry (Cytometric Bead Array, BD).

C57Bl/6 mice [6] = test: Epitope analysis of anti-VMP sera on VMP peptide fragments; assay type: in vivo, mouse; conditions: d 90
Description: as §3, §4

mice [7] = test: Antigen delivery to draining lymph nodes (histology at serial time-points); assay type: in vivo, mouse; conditions: s.c., with MPLA
Description: as §1

ovalbumin [soluble OVA]
Expansion of OT-II CD4+ T-cells in spleens, fold compared to PBS (CD45.1+ recipient mice): ~6.3 fold
Antigen-specific T-cell expansion by tetramer staining (C57Bl/6 mice [1]): barely detectable
Proliferation of OT-I CD8+ T-cells [2]: weak T-cell responses
Anti-OVA serum IgG response (C57Bl/6 mice [3]): barely detectable antibody response

B1: soluble VMP: recombinant vivax malaria protein (VMP001, SEQ ID NO:1) given as soluble protein with MPLA, Montanide or alum (protein)
chain: THCGHNVDLSKAINLNGVNFNNVDASSLGAAHVGQSASRGRGLGENPDDEEGDAKKKKDGKKAEPKNPRENKLKQPGDRADGQAAGNGAGGQPAGDRAAGQPAGDRAAGQPAGDGAAGQPAGDRADGQPAGDRADGQPAGDRAAGQAAGNGAGGQAAANGAGNQPGGGNAANKKAEDAGGNAGGNAGGQGQNNEGANAPNEKSVKEYLDKVRATVGTEWTPCSVTCGVGVRVRRRVNAANKKPEDLTLNDLETDVCT
modifications: VMP Amino Acid Sequence
GCs per dLN (mice [4]): complete absence
Fold more protein required to elicit a response than VMP-ICMVs (C57Bl/6 mice [5]; mixed with MPLA or adjuvanted with Montanide or alum): at least 10 fold
Antigen-specific IgG isotype response (C57Bl/6 mice [5]; with MPLA, d 90): only Th2-skewed IgG1 antibodies
Recognition of the AGDR motif by sera (C57Bl/6 mice [6]): did not recognize

B2: ovalbumin (protein, UniProt P01012 2-386, looked up)
Ovalbumin: GSIGAASMEFCFDVFKELKVHHANENIFYCPIAIMSALAMVYLGAKDSTRTQINKVVRFDKLPGFGDSIEAQCGTSVNVHSSLRDILNQITKPNDVYSFSLASRLYAEERYPILPEYLQCVKELYRGGLEPINFQTAADQARELINSWVESQTNGIIRNVLQPSSVDSQTAMVLVNAIVFKGLWEKAFKDEDTQAMPFRVTEQESKPVQMMYQIGLFRVASMASEKMKILELPFASGTMSMLVLLPDEVSGLEQLESIINFEKLTEWTSSNVMEERKIKVYLPRMKMEEKYNLTSVLMAMGITDVFSSSANLSGISSAESLKISQAVHAAHAEINEAGREVVGSAEAGVDAASVSEEFRADHPFLFCIKHIATNAVLFFGRCVSP
Time at which antigen was detected in dLNs (mice [7]): ≤ 4 h
